Measured values from publication PMC6659632, “Preferential phosphatidylinositol 5-phosphate binding contributes to a destabilization of the VHS domain structure of Tom1” (Scientific Reports, 2019).

Biological target: T1, ubiquitin (human, UniProt P0CG48 1-76)
T1 construct: ubiquitin, human; the cut product (one ubiquitin unit) of the polyubiquitin precursor; Construct was a gift (Dr. Julie Forman-Kay); also called human ubiquitin
Test: ITC; ubiquitin (5 mM) in the syringe, Tom1 VHS (50 uM) in the sample cell; 25 °C; 20 mM HEPES (pH 7.4), 150 mM KCl; one-site binding model; nonreducing conditions
Conditions: both partners purified

- Kd: 695 µM
B1: Tom1 VHS domain (domain or fragment, human, UniProt O60784 20-152, looked up)
chain: ATDGSLQSEDWALNMEICDIINETEEGPKDALRAVKKRIVGNKNFHEVMLALTVLETCVKNCGHRFHVLVASQDFVESVLVRTILPKNNPPTIVHDKVLNLIQSWADAFRSSPDLTGVVTIYEDLRRKGLEFP
notes: Tom1 (target of Myb1), human, N-terminal VHS domain; measured average mass 15,708.01 Da, predicted 15.7 kDa; also called VHS domain of Tom1; target of Myb1 VHS domain; source: E. coli (Rosetta), GST fusion purified on glutathione beads, cleaved with thrombin, size-exclusion chromatography
